Consider 1 protein from paper doi:10.1101/2025.01.26.634877 (bioRxiv, 2025).

This data set concerns the molecule itself. Description: light scattering.

B1: Recombinant mouse neurofilament light chain protein, wild type (NfL-WT) (natural protein, UniProt P08551 1-543, looked up)
chain: MSSFGYDPYFSTSYKRRYVETPRVHISSVRSGYSTARSAYSSYSAPVSSSLSVRRSYSSSSGSLMPSLENLDLSQVAAISNDLKSIRTQEKAQLQDLNDRFASFIERVHELEQQNKVLEAELLVLRQKHSEPSRFRALYEQEIRDLRLAAEDATNEKQALQGEREGLEETLRNLQARYEEEVLSREDAEGRLMEARKGADEAALARAELEKRIDSLMDEIAFLKKVHEEEIAELQAQIQYAQISVEMDVSSKPDLSAALKDIRAQYEKLAAKNMQNAEEWFKSRFTVLTESAAKNTDAVRAAKDEVSESRRLLKAKTLEIEACRGMNEALEKQLQELEDKQNADISAMQDTINKLENELRSTKSEMARYLKEYQDLLNVKMALDIEIAAYRKLLEGEETRLSFTSVGSITSGYSQSSQVFGRSAYSGLQSSSYLMSARSFPAYYTSHVQEEQTEVEETIEATKAEEAKDEPPSEGEAEEEEKEKEEGEEEEGAEEEEAAKDESEDTKEEEEGGEGEEEDTKESEEEEKKEESAGEEQVAKKKD
modifications: native post-translational phosphorylation (varying levels, sites not given); N-terminal carbamoylation observed from the urea conditions
Turning to B1, the binding result is “binds”.
